Source: US20070128672A1 (ST VINCENT S HOSPITAL SYDNEY, published 2007)
Substitutions are numbered along the chain they refer to. Read-outs that look alike come from different tables or passages of the source.

B1: Fab clone 1159.8 (Fab, V domains shown)
VH: VQLLESGGGLIQPGRSLRLSCTASGFPFGDSAMTWFRQAPGKGLEWVGFIRSKAYGAATAYAASMKGRVTISRDDAKSIAYLHMSRLKIEDTAVYFCSRVKAGGPDYWGQGTLVTVSS
VL: AAELTQSPLSLPVIPGEPASISCRSSQSLLHRNGYNYLDWYLQKPGQSPQLLIYLGSTRASGVPDRFSGSGSGTDFTLNIRRVEAEDVGVYYCMQGLQTPYTFGEGTKVEIK
notes: Soluble Fab selected by panning on the p53 central domain; detected through the myc tag (9E10)
B2: Fab clone 163.1 (Fab, V domains shown)
VH: VQLLEQSGAEMKRPGASVTISCQASRQTFSGQYIHWVRQAPGQGLEWMGVINPSGGSANYAPSFQGRLSMSRDASTNTVYMKLSSLTSEDTAVYYCLSQALKYWGQGTLVAVSS
VL: AAELTQSPDSLAVSLGERATINCKSNQSVLYNSNSKNYLAWYQQKPGQPPKLLIYWASTRESGVPDRFSGSGSGTDFTLTITSLQAEDVAVYYCQQYFSSPYTFGQGTKLEIK
notes: myc tag on the C terminus of the heavy chain
B3: Fab clone 163.5 (Fab, V domains shown)
VH: VQLLEQSGAEVKRPGASVTISCQASRQDFSGQYIHWVRQAPGQGFEWMGIINPSGGSANYAPKFKGRLTMSRDSSTDTVYMTLTSLTSEDTAVYYCLLQALKHWGQGTLVAVSS
VL: AAELTQSPDSLAVALGERATINCKSSQSVLYSLNNKNYLAWYQQKPGQPPKLLIHWASTRESGVPDRFSGSGSETDFTLTISSLQAEDVAVYYCQQYYTTPYTFGQGTKLEIK
B4: whole anti-p53 antibody from CHO clone C4B4 (antibody, V domains shown)
VH: B3 VH
VL: B3 VL
notes: also called C4B4G4
B5: Fab clone 163.24 (Fab, V domains shown)
VH: B3 VH with D28N, F45L, K63R, T69S, V79A, M81L, Y95F, A100S
VL: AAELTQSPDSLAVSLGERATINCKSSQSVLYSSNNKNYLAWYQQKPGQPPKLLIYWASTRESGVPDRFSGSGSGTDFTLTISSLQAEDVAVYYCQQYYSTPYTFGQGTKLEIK
notes: Human IgG1 kappa Fab (MCO1 vector, soluble from E. coli HB2151), myc tag on the C terminus of the heavy chain
B6: Fab clone 163.17 (Fab, V domains shown)
VH: B3 VH with Q23R, D77E, A111G, V112P
VL: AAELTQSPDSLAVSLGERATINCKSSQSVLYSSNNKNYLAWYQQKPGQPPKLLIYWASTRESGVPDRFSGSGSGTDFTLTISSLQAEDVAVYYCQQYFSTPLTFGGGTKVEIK
notes: as for B5

Assays:
[1] = target: T1, p53 central domain (residues 95-298) (UniProt P04637 95-298); test: ELISA, soluble Fab, detected with 9E10 and AP goat anti-mouse
T1 construct: range 95-298; Carries the vector's tag (purified as whole p53 on Ni2+ resin); also called central domain of p53

[2] = target: T2, recombinant p53 (wild type, whole protein) (UniProt P04637 1-393, limits assumed); test: as above
T2 construct: mature; Also tested unpurified in bacterial lysates; also called whole p53; full length p53

bovine serum albumin [3] = target: T3, bovine serum albumin (bovine, UniProt P02769 25-607); test: cross reactivity ELISA, Fab detected with 9E10 and AP goat anti-mouse
T3 construct: also called BSA

bovine serum albumin [4] = target: T3, bovine serum albumin; test: ELISA, crude Fab supernatant, detected with 9E10
CEA = target: T4, CEA (UniProt P06731 35-685); test: ELISA, crude Fab supernatant, detected with 9E10
T4 sequence (looked up): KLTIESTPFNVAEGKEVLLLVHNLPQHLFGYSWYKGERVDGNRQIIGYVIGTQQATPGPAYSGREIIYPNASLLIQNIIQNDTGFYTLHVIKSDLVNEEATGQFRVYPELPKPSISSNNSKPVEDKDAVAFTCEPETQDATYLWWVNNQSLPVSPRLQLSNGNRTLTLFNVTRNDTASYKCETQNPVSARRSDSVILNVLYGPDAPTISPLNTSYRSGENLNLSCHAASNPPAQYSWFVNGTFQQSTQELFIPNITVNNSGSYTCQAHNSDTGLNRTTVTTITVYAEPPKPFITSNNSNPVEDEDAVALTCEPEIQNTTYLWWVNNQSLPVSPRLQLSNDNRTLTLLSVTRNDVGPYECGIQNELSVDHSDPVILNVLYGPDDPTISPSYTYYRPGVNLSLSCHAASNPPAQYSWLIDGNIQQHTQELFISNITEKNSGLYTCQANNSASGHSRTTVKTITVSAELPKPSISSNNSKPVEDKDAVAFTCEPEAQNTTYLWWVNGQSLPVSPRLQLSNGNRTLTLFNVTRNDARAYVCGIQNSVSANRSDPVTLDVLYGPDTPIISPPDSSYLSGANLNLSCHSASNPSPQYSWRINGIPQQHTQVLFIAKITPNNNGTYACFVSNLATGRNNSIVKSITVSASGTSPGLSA

[5] = target: T5, ErbB2 extracellular domain (UniProt P04626 23-652, limits assumed); test: ELISA, crude Fab supernatant, detected with 9E10
T5 construct: extracellular domain

[6] = target: T2, recombinant p53 (wild type, whole …); test: SPR (BIAcore), p53 amine-coupled to a CM5 chip, Fab 10-200 nM injected, global fit, 1:1 model with drifting baseline
[7] = target: T6, p53 deletion construct 18 (residues 44-393) (human, UniProt P04637 44-393); test: immunoblot of E. coli lysates, Fab detected with 9E10 and HRP goat anti-mouse
T6 construct: In E. coli lysate on an immunoblot; also called the 18 construct

[8] = target: T1, p53 central domain (residues 95-298); test: immunoblot of purified central domain, Fab bacterial supernatant
[9] = target: T2, recombinant p53 (wild type, whole …)
bovine serum albumin [10] = target: T3, bovine serum albumin; test: cross reactivity ELISA, purified antibody, HRP goat anti-human
hen egg white lysozyme = hen egg white lysozyme (hen, UniProt P00698 19-147); test: as above
[11] = target: T1, p53 central domain (residues 95-298); test: ELISA, detected with HRP goat anti-human
[12] = target: T7, p53 carboxy terminal domain (residues 283-393) (UniProt P04637 283-393); test: ELISA, detected with HRP goat anti-human
T7 construct: Carries the vector's tag; also called C-terminal domain; carboxy terminal domain of the p53
T7 sequence (P04637 283-393 limits assumed): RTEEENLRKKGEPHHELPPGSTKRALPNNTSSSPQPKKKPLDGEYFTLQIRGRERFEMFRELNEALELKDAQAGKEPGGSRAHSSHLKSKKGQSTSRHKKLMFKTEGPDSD

T3 sequence (P02769 25-607 limits assumed): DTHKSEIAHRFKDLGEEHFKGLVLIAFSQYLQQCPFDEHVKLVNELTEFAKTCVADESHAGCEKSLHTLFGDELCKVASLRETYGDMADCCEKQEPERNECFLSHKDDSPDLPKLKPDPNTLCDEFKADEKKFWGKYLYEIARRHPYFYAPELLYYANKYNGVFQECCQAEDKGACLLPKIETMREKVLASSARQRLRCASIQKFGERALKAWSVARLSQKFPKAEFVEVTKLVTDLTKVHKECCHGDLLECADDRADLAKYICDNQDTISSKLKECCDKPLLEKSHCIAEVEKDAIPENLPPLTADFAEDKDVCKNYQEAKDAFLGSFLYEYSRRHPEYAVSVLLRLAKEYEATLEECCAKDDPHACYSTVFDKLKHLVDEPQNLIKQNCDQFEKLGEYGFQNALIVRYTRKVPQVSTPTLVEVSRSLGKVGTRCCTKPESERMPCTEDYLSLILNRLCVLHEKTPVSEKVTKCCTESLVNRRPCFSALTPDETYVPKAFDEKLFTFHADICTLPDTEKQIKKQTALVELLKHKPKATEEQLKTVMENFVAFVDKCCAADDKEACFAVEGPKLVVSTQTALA
T6 sequence (P04637 44-393 limits assumed, stated change not applied): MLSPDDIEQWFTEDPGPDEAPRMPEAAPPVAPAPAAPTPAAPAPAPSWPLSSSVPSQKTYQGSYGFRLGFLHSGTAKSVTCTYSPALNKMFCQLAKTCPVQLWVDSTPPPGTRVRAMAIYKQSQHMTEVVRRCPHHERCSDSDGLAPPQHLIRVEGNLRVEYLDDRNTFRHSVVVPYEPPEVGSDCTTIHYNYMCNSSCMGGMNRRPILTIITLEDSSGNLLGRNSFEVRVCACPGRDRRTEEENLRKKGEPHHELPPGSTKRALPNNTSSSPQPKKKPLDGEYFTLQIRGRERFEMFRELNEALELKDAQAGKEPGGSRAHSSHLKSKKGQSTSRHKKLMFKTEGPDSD
T2 sequence (P04637 whole entry): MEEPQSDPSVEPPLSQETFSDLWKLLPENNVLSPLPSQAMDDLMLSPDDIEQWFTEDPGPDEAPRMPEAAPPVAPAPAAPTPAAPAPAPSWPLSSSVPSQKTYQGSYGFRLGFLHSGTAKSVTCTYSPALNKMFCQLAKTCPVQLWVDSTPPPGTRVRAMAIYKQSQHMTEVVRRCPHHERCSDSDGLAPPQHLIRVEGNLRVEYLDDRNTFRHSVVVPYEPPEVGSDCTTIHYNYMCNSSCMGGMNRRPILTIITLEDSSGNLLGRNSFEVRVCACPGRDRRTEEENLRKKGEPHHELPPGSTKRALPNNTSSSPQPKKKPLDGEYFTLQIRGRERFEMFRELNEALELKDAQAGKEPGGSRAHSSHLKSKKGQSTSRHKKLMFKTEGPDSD
T1 sequence (P04637 95-298 limits assumed): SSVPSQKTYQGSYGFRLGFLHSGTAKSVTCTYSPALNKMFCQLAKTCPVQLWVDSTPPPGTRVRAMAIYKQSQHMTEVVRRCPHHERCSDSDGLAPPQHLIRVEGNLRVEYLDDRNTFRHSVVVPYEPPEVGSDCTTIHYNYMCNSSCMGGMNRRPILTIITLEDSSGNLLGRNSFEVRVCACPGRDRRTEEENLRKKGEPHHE
hen egg white lysozyme, sequence (P00698 19-147): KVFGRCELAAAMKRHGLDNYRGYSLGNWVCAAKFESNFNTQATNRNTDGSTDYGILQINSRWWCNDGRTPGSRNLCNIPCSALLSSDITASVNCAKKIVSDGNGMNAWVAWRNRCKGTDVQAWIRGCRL

Binder | binding result (bovine serum albumin [4]) | binding result (CEA) | binding result [5] | Kd [6] [µM] | binding result [7] | further results
B1 | – | – | – | – | – | binding result [1]: binds; binding result [2]: binds; binding result (bovine serum albumin [3]): no binding (tested: antigen coated at 1 µg/ml)
B2 | no binding (tested: antigen coated at 1 µg/ml) | no binding (tested: antigen coated at 5 µg/ml) | no binding (tested: antigen coated at 5 µg/ml) | 0.0119 | no binding | binding result [8]: no binding
B3 | no binding (tested: antigen coated at 1 µg/ml) | no binding (tested: antigen coated at 5 µg/ml) | no binding (tested: antigen coated at 5 µg/ml) | – | no binding | Kd [9]: 0.015 µM
B4 | – | – | – | – | – | binding result (bovine serum albumin [10]): no binding (tested: antigen coated at 20 µg/ml); binding result (hen egg white lysozyme): no binding (tested: antigen coated at 10 µg/ml); binding result [11]: no binding (tested: antigen coated at 2 µg/ml); binding result [12]: no binding (tested: antigen coated at 2 µg/ml)
B5 | no binding (tested: antigen coated at 1 µg/ml) | no binding (tested: antigen coated at 5 µg/ml) | no binding (tested: antigen coated at 5 µg/ml) | 0.0138 | no binding | –
B6 | no binding (tested: antigen coated at 1 µg/ml) | no binding (tested: antigen coated at 5 µg/ml) | no binding (tested: antigen coated at 5 µg/ml) | 0.0157 | no binding | –
